The results in this text go back to patent publication US20240034786A1 (WUXI BIOLOGICS IRELAND, published 2024).

Assay [1] deals with T1, WBP319-hPro2.ECD.His (R&D) (human, UniProt P12830 155-709).
T1 construct: extracellular domain; Bought protein; also called human E-Cadherin.ECD.His; Human E-Cadherin
T1 sequence (looked up): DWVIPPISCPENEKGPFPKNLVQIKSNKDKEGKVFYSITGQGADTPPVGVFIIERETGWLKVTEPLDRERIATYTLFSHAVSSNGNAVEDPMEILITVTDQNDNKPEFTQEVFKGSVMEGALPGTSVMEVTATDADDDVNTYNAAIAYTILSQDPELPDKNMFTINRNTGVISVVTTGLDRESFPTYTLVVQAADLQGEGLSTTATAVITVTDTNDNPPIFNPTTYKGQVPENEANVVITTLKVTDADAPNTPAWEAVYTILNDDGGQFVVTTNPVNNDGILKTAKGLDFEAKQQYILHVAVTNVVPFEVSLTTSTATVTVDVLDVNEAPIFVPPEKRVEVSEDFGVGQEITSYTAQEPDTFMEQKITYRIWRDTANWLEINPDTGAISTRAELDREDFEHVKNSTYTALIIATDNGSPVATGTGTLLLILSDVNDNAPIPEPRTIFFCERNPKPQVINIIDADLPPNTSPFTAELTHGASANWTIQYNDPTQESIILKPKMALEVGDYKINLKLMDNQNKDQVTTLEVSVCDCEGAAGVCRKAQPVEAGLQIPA
Description: capture ELISA, antigen held by anti-His antibody. On the procedure:
(§1) The binding of the antibodies to human E-Cadherin.ECD.His (R&D-8505-NC-050, WBP319-hPro2.ECD.His (R&D)) and human N-Cadherin.ECD.His (R&D-1388-NC-050, WBP319-hPro3.ECD.hFcHis (R&D)) were tested by a captured protein binding ELISA. 96-well high protein binding ELISA plates (Nunc MaxiSorp, ThermoFisher, Cat #: 442404) were coated overnight at 4° C. with 1 μg/mL capture antibody (THETM His Tag mAb, GenScript, Cat #: A00186) in Carbonate-bicarbonate buffer (20 mM Na2CO3, 180 mM NaHCO3, pH=9.2). All wells were washed three time with 300 μL per well of PBS/0.5‰ Tween-20 (v/v) and all the following wash steps in the assay were performed the same. The wells were then blocked for one hour with 3% milk (Shanghai Dingguo-DH220)/1×PBS (Ca+/Mg+) (Gibco, #14040-117) and washed three times, followed by binding of 1 μg/mL antigens in 3% milk/1×PBS (Ca+/Mg+) for 1 hour at room temperature and three washes afterwards. […]
(§2) For the binding detection, 100 μL Tetramethylbenzidine (TMB) Substrate solution (Invitrogen, Cat #: 002023) was added to all wells for 10 minutes before stopping the reaction with 100 μL 2M HCl. The extent of the testing Abs binding to WBP319-hPro2.ECD.His (R&D)) and WBP319-hPro3.ECD.hFcHis (R&D) were determined by measuring the OD450 absorbance using the SpectraMax® M5e microplate reader. […]

Assay [2] concerns the target T2, WBP319-hPro3.ECD.hFcHis (R&D) (human, UniProt P19022 160-724).
T2 construct: extracellular domain; Bought protein; the text calls it ECD.His, the code says hFcHis; also called human N-Cadherin.ECD.His; Human N-Cadherin; not shown: human Fc and His tag by the code hFcHis
T2 sequence (looked up): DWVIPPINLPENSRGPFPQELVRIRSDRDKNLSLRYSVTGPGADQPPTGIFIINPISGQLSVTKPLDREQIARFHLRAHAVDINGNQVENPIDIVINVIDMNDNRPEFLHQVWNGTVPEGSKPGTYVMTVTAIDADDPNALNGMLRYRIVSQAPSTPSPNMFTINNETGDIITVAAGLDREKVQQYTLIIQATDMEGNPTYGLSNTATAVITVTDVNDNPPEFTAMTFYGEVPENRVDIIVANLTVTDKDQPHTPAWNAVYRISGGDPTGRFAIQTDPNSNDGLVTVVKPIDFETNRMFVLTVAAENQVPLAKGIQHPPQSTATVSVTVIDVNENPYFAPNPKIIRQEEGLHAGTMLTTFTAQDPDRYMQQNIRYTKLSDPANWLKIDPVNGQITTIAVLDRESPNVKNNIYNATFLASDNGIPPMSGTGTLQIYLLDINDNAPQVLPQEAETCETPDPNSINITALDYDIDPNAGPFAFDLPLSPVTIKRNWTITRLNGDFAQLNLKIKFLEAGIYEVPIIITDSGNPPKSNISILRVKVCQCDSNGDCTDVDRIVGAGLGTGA
Description: capture ELISA, antigen held by anti-His antibody. On the procedure:
as §1, §2

B1: W3195-1.53.1-p1-uIgG1L (antibody)
heavy: not shown
light: SYELTQPPSVSVSPGQTAQITCSGDKLGDKFASWYQQKSGQSPVVVIYQDNKRPSGFPERFSGSNSGNTATLTISGTQAMDEADYYCQAWDSSIVVFGGGTKLTVLGQPKAAPSVTLFPPSSEELQANKATLVCLISDFYPGAVTVAWKADSSPVKAGVETTTPSKQSNNKYAASSYLSLTPEQWKSHRSYSCQVTHEGSTVEKTVAPTECS
notes: also called W3195-p1 antibody
As to B1, the concentration giving a half-maximal response (EC50) in assay [1] and in assay [2] was over 0.1 µM each time.
